{"source": "paper PMC10517255", "about": "“Cysteine Enrichment Mediates Co-Option of Uricase in Reptilian Skin and Transition to Uricotelism” (Molecular Biology and Evolution, 2023)", "key": {"GgUox [1]": {"molecular_target": "T1, GgUox (Gallus gallus, UniProt A0A8V0ZED1)", "T1 construct": "gene LOC101747367; uricase-like CDS in pET28 (NheI/XhoI), N-terminal His-tag with thrombin site (uncleaved for crystals)", "T1 sequence (A0A8V0ZED1 1-320)": "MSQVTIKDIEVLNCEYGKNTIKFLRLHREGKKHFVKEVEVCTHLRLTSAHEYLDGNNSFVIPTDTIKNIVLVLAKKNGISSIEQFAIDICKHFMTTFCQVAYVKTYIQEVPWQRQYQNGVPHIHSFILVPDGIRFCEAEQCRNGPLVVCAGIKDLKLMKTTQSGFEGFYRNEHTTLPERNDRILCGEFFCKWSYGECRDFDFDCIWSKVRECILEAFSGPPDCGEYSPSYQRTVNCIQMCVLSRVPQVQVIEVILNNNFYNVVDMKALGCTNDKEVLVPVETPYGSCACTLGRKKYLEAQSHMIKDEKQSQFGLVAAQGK", "experiment": "X-ray crystallography, […]-2.[…] Å, reduced and H2O2-oxidized crystals", "assay_type": "binding", "conditions": "active site at dimer interface; uncleaved His-tag; space groups P2_12_12_1 and C222_1"}, "GgUox [2]": {"molecular_target": "T2, GgUox (Gallus gallus, UniProt A0A8V0ZED1, Y230H)", "T2 construct": "gene LOC101747367; uricase-like CDS in pET28 (NheI/XhoI), N-terminal His-tag with thrombin site (uncleaved for crystals)", "T2 sequence (A0A8V0ZED1 1-320 Y230H)": "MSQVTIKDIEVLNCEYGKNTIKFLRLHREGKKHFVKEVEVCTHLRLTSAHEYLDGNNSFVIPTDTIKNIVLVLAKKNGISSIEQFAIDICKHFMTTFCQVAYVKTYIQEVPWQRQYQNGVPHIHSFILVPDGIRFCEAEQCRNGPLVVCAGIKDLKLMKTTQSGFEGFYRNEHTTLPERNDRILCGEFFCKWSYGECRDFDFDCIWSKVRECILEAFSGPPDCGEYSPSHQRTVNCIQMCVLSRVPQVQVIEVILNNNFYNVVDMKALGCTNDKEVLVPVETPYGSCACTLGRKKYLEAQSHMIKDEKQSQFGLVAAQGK", "experiment": "uricase activity, specific activity", "assay_type": "biochemical", "conditions": "activity relative to wild type"}, "DrUox": {"molecular_target": "T3, DrUox (Danio rerio, UniProt Q6DG85)", "T3 construct": "gene uox; enzyme described in Marchetti et al. 2016; tetrameric, about 150 kDa", "T3 sequence (Q6DG85 1-298)": "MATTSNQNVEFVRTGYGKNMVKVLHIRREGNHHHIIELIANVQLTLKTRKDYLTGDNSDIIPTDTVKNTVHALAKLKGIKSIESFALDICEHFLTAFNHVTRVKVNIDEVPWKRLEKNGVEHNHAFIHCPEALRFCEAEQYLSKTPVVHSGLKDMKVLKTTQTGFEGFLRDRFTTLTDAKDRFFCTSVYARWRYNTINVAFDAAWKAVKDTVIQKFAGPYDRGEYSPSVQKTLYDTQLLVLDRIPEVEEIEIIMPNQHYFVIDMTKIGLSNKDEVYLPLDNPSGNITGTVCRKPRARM", "experiment": "stopped flow, single turnover, diode array", "assay_type": "biochemical", "conditions": "35 μM enzyme, 25 μM urate, 100 mM potassium phosphate pH 7.6, 25°C"}, "[3]": {"molecular_target": "Gallus gallus Uox (cysteine-rich urate oxidase) (Gallus gallus)", "experiment": "SEC; purified GgUox, single peak (supplementary fig. S4B)"}, "[4]": {"molecular_target": "Gallus gallus Uox (cysteine-rich urate oxidase) (Gallus gallus)", "experiment": "atomic force microscopy; particle volume of the enzyme on mica, native or pre-incubated with βME, 100 nM protein in 4 mM HEPES pH 7.4, 10 mM NaCl, 2 mM MgCl2, imaged in air, tapping mode"}, "[5]": {"molecular_target": "Gallus gallus Uox (cysteine-rich urate oxidase) (Gallus gallus)", "experiment": "crystal structure; GgUox with uncleaved N-terminal His tag in complex with the inhibitor 8-azaxanthine; space groups C222_(1) and P2_(1)2_(1)2_(1); reduced, and oxidised by a 100 mM H2O2 soak for 15 min"}, "purified protein": {"substrate": "O=c1[nH]c(=O)c2[nH]c(=O)[nH]c2[nH]1", "experiment": "purified protein", "assay_type": "biochemical, Gallus gallus", "conditions": "100 mM potassium phosphate pH 7.6, 25°C, 4.1 µM GgUox, 1 µM HIUase, 2-140 μM urate"}, "[6]": {"molecular_target": "the molecule itself", "experiment": "atomic force microscopy; particle volume of the enzyme on mica, native or pre-incubated with βME, 100 nM protein in 4 mM HEPES pH 7.4, 10 mM NaCl, 2 mM MgCl2, imaged in air, tapping mode"}}, "data": [{"molecule": "O=c1[nH]c(=O)c2nn[nH]c2[nH]1", "note": "[8-azaxanthine]", "values": [{"measurement": "X-ray crystallography, 1.7-2.1 Å, reduced and H2O2-oxidized crystals", "setting": "GgUox [1]", "value": "We crystallized GgUox in complex with its AZA inhibitor in two space groups"}]}, {"molecule": "O=c1[nH]c(=O)c2[nH]c(=O)[nH]c2[nH]1", "note": "[uric acid]", "values": [{"measurement": "uricase activity, specific activity", "setting": "GgUox [2]", "value": "we mutated the tyrosine in the active site of GgUox to either histidine (Y230H)"}, {"measurement": "stopped flow, single turnover, diode array", "setting": "DrUox", "value": "the same experiment was carried out with DrUox for comparison"}]}, {"molecule": "Gallus gallus Uox (cysteine-rich urate oxidase) (enzyme)", "values": [{"measurement": "stoichiometry N", "setting": "[3]", "value": 4}, {"measurement": "stoichiometry N", "setting": "[4]", "value": 4}, {"measurement": "stoichiometry N", "setting": "[5]", "value": 4}]}, {"molecule": "GgUox (Gallus gallus) (protein, uricase-like CDS in pET28 (NheI/XhoI), N-terminal His-tag with thrombin site (uncleaved for crystals)) MSQVTIKDIEVLNCEYGKNTIKFLRLHREGKKHFVKEVEVCTHLRLTSAHEYLDGNNSFVIPTDTIKNIVLVLAKKNGISSIEQFAIDICKHFMTTFCQVAYVKTYIQEVPWQRQYQNGVPHIHSFILVPDGIRFCEAEQCRNGPLVVCAGIKDLKLMKTTQSGFEGFYRNEHTTLPERNDRILCGEFFCKWSYGECRDFDFDCIWSKVRECILEAFSGPPDCGEYSPSYQRTVNCIQMCVLSRVPQVQVIEVILNNNFYNVVDMKALGCTNDKEVLVPVETPYGSCACTLGRKKYLEAQSHMIKDEKQSQFGLVAAQGK", "values": [{"measurement": "Km", "setting": "purified protein", "value": 12.5, "unit": "µM"}, {"measurement": "kcat", "setting": "purified protein", "value": 0.03, "unit": "s⁻¹"}]}, {"molecule": "Danio rerio Uox (enzyme, UniProt Q6DG85 1-298, looked up, Danio rerio urate oxidase (DrUox), as in Marchetti et al. 2016; also called DrUox; uricase) MATTSNQNVEFVRTGYGKNMVKVLHIRREGNHHHIIELIANVQLTLKTRKDYLTGDNSDIIPTDTVKNTVHALAKLKGIKSIESFALDICEHFLTAFNHVTRVKVNIDEVPWKRLEKNGVEHNHAFIHCPEALRFCEAEQYLSKTPVVHSGLKDMKVLKTTQTGFEGFLRDRFTTLTDAKDRFFCTSVYARWRYNTINVAFDAAWKAVKDTVIQKFAGPYDRGEYSPSVQKTLYDTQLLVLDRIPEVEEIEIIMPNQHYFVIDMTKIGLSNKDEVYLPLDNPSGNITGTVCRKPRARM", "values": [{"measurement": "stoichiometry N", "setting": "[6]", "value": 4}]}]}
